In patent publication US20180362587A1, “Compositions and Methods for Inhibiting CBP80 Binding to PGC1 Family of Co-Activators” (University of Rochester, priority 2015, published 2018):
Each block holds one binder with its values, some of them ahead of it. Primed or numbered codes have the meaning given here. * marks the point of attachment. Biotin = O=C1N[C@H]2[C@H](CS[C@H]2CCCCC(=O)*)N1; FITC′ = fluorescein-isothiocyanate; Ahx = NCCCCCC(=O)O

Key:
FLAG-PGC1α WT = target: T1, FLAG-PGC1α WT (human, UniProt Q9UBK2 1-798); experiment: anti-FLAG IP from C2C12 knock-down cells, western blot
T1 construct: also called FLAG-tagged human (h) PGC1α wild-type; FLAG-PCG1α WT; not shown: FLAG tag
T1 sequence (looked up): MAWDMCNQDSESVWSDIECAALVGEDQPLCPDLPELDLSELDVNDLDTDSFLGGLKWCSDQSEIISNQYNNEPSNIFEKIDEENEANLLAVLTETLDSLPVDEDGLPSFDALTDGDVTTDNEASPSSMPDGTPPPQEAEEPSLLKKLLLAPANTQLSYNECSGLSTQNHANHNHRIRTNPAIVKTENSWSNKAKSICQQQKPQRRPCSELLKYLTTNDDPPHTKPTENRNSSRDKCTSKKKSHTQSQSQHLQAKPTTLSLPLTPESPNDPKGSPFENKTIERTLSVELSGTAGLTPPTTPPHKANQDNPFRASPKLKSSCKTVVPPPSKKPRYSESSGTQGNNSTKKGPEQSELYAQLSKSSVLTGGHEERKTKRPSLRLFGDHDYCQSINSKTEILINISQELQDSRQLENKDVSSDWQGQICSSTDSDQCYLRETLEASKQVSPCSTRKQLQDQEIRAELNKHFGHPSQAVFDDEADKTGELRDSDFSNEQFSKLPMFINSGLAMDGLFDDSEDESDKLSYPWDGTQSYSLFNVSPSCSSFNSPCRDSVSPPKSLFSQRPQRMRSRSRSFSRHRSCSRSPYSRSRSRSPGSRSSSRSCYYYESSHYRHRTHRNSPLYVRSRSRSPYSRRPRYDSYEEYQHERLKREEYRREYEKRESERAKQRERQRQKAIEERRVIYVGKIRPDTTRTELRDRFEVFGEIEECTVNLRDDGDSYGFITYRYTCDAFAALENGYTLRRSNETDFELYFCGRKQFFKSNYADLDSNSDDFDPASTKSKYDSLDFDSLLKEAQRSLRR

CBP80/CBP20 complex [1] = target: T2, CBP80/CBP20 complex (human, UniProt Q09161 20-790; P52298 1-156, limits assumed); experiment: FP competition assay; FITC-labeled PGC1β peptide as competitor
T2 construct: Used in the fluorescence polarization assays; In the crystal it also carried the cap analogue (m7GpppG / m7GpppA); also called CBC complex; CBC
T2 sequence (looked up) 1: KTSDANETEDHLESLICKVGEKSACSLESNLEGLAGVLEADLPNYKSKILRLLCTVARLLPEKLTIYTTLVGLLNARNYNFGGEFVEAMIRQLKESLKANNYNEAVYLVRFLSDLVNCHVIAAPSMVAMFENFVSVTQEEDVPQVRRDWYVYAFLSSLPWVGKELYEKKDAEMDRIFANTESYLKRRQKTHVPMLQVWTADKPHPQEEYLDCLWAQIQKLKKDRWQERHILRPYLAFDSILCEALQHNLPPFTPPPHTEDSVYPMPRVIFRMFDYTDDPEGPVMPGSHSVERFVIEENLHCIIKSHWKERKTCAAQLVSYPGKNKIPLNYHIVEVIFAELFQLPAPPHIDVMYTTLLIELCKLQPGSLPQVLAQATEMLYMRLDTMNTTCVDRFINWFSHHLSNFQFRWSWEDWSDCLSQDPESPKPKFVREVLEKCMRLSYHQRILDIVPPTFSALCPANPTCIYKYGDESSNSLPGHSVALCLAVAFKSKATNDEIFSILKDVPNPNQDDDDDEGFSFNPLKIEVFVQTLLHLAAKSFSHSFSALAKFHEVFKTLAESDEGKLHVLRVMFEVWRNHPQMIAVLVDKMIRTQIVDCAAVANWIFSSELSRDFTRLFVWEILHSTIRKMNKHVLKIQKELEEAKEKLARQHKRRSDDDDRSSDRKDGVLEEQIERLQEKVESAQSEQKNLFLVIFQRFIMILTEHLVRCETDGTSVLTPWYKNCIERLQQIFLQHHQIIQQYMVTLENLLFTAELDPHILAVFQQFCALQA
T2 sequence (looked up) 2: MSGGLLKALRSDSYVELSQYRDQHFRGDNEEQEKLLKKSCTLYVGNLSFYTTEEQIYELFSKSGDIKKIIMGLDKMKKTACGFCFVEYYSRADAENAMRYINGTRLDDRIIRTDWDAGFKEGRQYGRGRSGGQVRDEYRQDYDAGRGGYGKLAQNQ
Protocol: (§1) The relative activity of the PGC1β mimics toward disrupting the interaction between CBC and the fluorescein-conjugated PGC1β-derived peptide was measured in a competition assay. Briefly, a fixed amount of CBC and fluorescein-conjugated PGC1β-derived peptide are incubated with increasing amounts of the PGC1β mimic (FIG. 11A). From the resulting dose-dependent inhibition curves, the in vitro CBC inhibitory activity of the PGC1β mimic compound is measured based on their respective half-maximal inhibitory concentration (IC₅₀) (FIG. 5B). Using this assay, various PGC1β mimics were evaluated for their relative ability to target CBC and disrupt its binding interaction with PGC1β. […] Short peptides derived from the C-terminal domain of PGC1β and PRC proteins, two other members of the PGC1 family of transcriptional coactivators, were also to bind CBC and inhibits its interaction with the fluorescein-labeled PGC1β peptide with IC₅₀ values in the low micromolar range.
IC₅₀ values were determined by adapting the fluorescence polarization assay described above to a competition format. […] Half-maximal inhibitory concentration (IC₅₀) values were calculated from the resulting inhibition curves as given by dose-dependent decrease in the fluorescence polarization signal. […]

CBP80/CBP20 complex [2] = target: T2, CBP80/CBP20 complex; experiment: FP competition assay; 1 µM FITC-Ahx-…-NH2 as competitor, 30 µM CBP80/CBP20 complex
Protocol: as §1
^aAc = acetyl; Biot = biotin; Ahx = 6-aminohexanoic acid; Aib = 2-aminoisobutyric acid; CrtDab = N^γ-crotonyl-2,4-diaminobutyric acid. C-terminal ‘-NH₂’ refers to amidated C-terminal end of the peptide. ^bIC₅₀ was determined using fluorescence polarization based competition assay in the presence of 1 μM of FITC-labeled PGC1β (FITC-Ahx-[…]-NH₂, where FITC is fluorescein-isothiocyanate) and 30 μM of the CBP80/CBP20 complex in HEPES buffer (10 mM HEPES, 50 mM NaCl, 5 mM BME, pH 7.5).
(§2) IC₅₀ values were determined by adapting the fluorescence polarization assay described above to a competition format. 1 μM of the FITC-labeled PGC1β peptide (FITC-Ahx-[…]-NH₂) was incubated with 30 μM of the CBP80-CBP20 complex in HEPES Buffer (10 mM HEPES [pH 7.5], 50 mM NaCl and 5 mM 2-mercaptoethanol).

CBP80/CBP20 complex [3] = target: T2, CBP80/CBP20 complex; experiment: fluorescence polarization; 1 µM FITC peptide titrated with CBC complex (1-80 µM), 1:1 model
Protocol: In order to develop a first set of PGC1β mimics, a series of linear peptides encompassing the CBP80-binding domain of PGC1β were designed and synthesized (Table 3). The ability of these peptides to bind to CBP80 in complex with CBP20 (also referred herein as ‘CBC complex’ or simply ‘CBC’) was assessed using a fluorescence polarization assay in the presence of fluorescein-conjugated PGC1β-derived peptide (FITC-Ahx-[…]-NH₂ (SEQ ID NO:XX), where FITC is fluorescein-isothiocyanate and Ahx is 6-aminohexanoic acid).
The assay was performed in a 15-μl scale in a low-volume 384-well black plate on a Tecan M1000 Plate Reader using 470/20 nm excitation and 520/20 nm emission filters. All proteins and peptides were dissolved and diluted in HEPES buffer (50 mM NaCl, 10 mM HEPES […]). Fluorescently labelled PGC1β peptide (FITC-Ahx-[…]-NH₂) was used at 1 μM final concentration, and fluorescence polarization data were recorded at increasing concentration of the CBC complex (1-80 μM) after a 10-min incubation. The resulting concentration-dependent FP curve was fit to a 1:1 binding model to yield dissociation constant (KD) values. Measurements were performed at least in duplicates.

CBP80/CBP20 complex [4] = target: T2, CBP80/CBP20 complex; experiment: FP competition assay, alanine scan
Protocol: To examine the tolerance of this compound to sequence modification, an alanine-scanning library was synthesized. This library of PGC1β mimics consisted of 11 linear peptides (PGC1β-2A through PGC1β-12A; Table 3), in which each amino acid residue of the parent PGC1β-wt peptide was replaced with alanine (or with glycine, when the parent residue is alanine). The peptides were tested for their ability to inhibit the CBC-PGC1β interaction using the aforementioned fluorescence polarization-based competition assay. […] These compounds include PGC1β mimics containing non-canonical amino acids such as 2-aminoisobutyric acid (Aib) and […]-crotonyl-2,4-diaminobutyric acid (CrtDab). Aib is an α,α-disubstituted amino acid which is well known for its ability to stabilize α-helical peptide structures as well as increase peptide stability against proteolysis.
as §2

B2: Biot-PGC1β (Biot-Ahx-SGG-AMDFDSLLKEAQQSLH-NH2) (peptide)
peptide: {Biotin-Ahx}-SGGAMDFDSLLKEAQQSLH-NH2
SMILES: CSCC[C@H](NC(=O)[C@H](C)NC(=O)CNC(=O)CNC(=O)[C@H](CO)NC(=O)CCCCCNC(=O)CCCC[C@@H]1SC[C@@H]2NC(=O)N[C@@H]21)C(=O)N[C@@H](CC(=O)O)C(=O)N[C@@H](Cc1ccccc1)C(=O)N[C@@H](CC(=O)O)C(=O)N[C@@H](CO)C(=O)N[C@@H](CC(C)C)C(=O)N[C@@H](CC(C)C)C(=O)N[C@@H](CCCCN)C(=O)N[C@@H](CCC(=O)O)C(=O)N[C@@H](C)C(=O)N[C@@H](CCC(N)=O)C(=O)N[C@@H](CCC(N)=O)C(=O)N[C@@H](CO)C(=O)N[C@@H](CC(C)C)C(=O)N[C@@H](Cc1c[nH]cn1)C(N)=O
notes: also called Biot-PGC1β peptide; biotinylated version of the PGC1β peptide
IC50 (CBP80/CBP20 complex [1]): 31 µM | IC50 (CBP80/CBP20 complex [2]): 35 µM

B3: FITC-Ahx-AMDFDSLLKEAQQSLH-NH2 (peptide)
peptide: {FITC′-Ahx}-AMDFDSLLKEAQQSLH-NH2
notes: Tracer of the FP assays; also called fluorescein-conjugated PGC1β-derived peptide; FITC-labeled PGC1β peptide
Kd (CBP80/CBP20 complex [3]): 47 µM

Second part, the binder after the results:

binding result (FLAG-PGC1α WT): binds
B1: endogenous CBP80 of mouse C2C12 myoblasts (other, UniProt Q3UYV9 1-790, looked up)
chain: MSRRRHSYENDGGQPHKRRKTSDANETEDHLESLICKVGEKSACSLESNLEGLAGVLEADLPNYKSKILRLLCTVARLLPEKLTIYTTLVGLLNARNYNFGGEFVEAMIRQLKESLKANNYNEAVYLVRFLSDLVNCHVIAAPSMVAMFENFVSVTQEEDVPQVRRDWYVYAFLSSLPWVGKELYEKKDAEMDRIFSTTESYLKRRQKTHVPMLQVWTADKPHPQEEYLDCLWAQIQKLKKDRWQERHILRPYLAFDSILCEALQHNLPPFTPPPHTEDSVYPMPRVIFRMFDYTDDPEGPVMPGSHSVERFVIEENLHCIIKSYWKERKTCAAQLVSYPGKNKIPLNYHIVEVIFAELFQLPAPPHIDVMYTTLLIELCKLQPGSLPQVLAQATEMLYMRLDTMSTTCVDRFINWFSHHLSNFQFRWSWEDWSDCLTQDLESPKPKFVREVLEKCMRLSYHQHILDIVPPTFSALCPANPTCIYKYGDESSNSLPGHSVALCLSVAFKSKATNDEIFSILKDVPNPNQVDDDDEGFRFNPLKIEVFVQTLLHLAAKSFSHSFSALAKFHEVFKTLAESDKGKLHVLRVMFEVWRNHPQMIAVLVDKMIRTQIVDCAAVANWIFSSELSRDFTRLFVWEILHSTIRKMNKHVLKIQKELEEAKEKLARQHKRRSDDDDRSSDRKDGALEEQIERLQEKVEAAQSEQKNLFLVIFQRFIMILTEHLVRCETDGTSILTPWYKNCIERLQQIFLQHHQTIQQYMVTLENLLFTAELDPHILAVFQQFCALQA

fold improvement of inhibitory activity against PGC1β-wt (CBP80/CBP20 complex [4]): ≤ 2 fold | IC50 (CBP80/CBP20 complex [2]): 33 µM
Binder: Ac-MDFDSLLKAAQQS-NH2 [PGC1β-9A (Ac-MDFDSLLKAAQQS-NH2)]
